Measured values from patent US20260258152.

Target: activated Factor VIII (FVIIIa) (UniProt P00451)
Sequence of UniProt P00451 (P00451 other isoform, or with tags, fused parts or gaps): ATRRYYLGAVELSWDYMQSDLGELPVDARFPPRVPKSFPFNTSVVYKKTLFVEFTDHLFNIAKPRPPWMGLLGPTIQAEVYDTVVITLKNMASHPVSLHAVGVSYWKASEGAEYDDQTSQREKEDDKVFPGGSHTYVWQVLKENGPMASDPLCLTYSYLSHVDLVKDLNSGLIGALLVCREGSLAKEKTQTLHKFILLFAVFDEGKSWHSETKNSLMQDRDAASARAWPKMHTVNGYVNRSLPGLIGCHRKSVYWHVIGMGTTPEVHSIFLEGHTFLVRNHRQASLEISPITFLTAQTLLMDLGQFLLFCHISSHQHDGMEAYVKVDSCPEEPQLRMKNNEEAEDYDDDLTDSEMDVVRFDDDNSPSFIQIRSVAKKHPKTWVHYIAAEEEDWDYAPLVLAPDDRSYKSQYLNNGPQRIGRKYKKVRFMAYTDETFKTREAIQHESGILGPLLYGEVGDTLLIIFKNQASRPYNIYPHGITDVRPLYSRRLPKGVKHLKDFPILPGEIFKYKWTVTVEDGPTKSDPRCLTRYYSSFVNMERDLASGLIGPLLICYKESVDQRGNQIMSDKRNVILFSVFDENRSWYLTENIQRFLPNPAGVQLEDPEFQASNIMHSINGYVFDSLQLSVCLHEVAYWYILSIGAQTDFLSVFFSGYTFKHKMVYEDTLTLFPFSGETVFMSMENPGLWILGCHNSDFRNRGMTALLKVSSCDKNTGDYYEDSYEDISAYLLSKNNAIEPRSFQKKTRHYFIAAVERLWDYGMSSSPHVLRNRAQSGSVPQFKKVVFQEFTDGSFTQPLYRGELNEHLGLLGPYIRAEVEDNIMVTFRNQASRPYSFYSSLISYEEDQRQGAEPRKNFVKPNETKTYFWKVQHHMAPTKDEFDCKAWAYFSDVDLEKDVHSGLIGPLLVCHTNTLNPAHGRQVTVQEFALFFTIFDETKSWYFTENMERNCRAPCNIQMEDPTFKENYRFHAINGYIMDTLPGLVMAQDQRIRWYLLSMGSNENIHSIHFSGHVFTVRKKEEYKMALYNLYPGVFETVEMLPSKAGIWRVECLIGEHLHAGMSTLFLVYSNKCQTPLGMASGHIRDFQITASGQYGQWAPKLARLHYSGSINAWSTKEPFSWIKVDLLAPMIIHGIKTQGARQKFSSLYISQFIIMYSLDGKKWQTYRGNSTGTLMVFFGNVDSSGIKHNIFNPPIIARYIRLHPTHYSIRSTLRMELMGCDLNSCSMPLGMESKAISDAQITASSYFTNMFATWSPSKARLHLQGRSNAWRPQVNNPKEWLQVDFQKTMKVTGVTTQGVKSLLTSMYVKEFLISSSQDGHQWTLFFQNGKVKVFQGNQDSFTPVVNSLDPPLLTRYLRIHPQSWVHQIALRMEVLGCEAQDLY

## Factor IX G93S (hemophilia B-causing FIX variant)
  FIX activity without the FVIIIa-mimetic: only 0.1% and 2% activity without the FVIIIa-mimetic
  FIX activity, one-stage aPTT clotting assay with and without 300 nM emicizumab: I397T, E387K, R338P, and G93S all substantially increase their activity with the addition of emicizumab
